Where two headings read alike, the source gives them in different places.
Tests used:
Experiment in all cases: crystal structure
crystal structure [1] = target: the molecule itself
crystal structure [2] = target: the molecule itself; remark: listed apart in the source
crystal structure [3] = target: the molecule itself; remark: listed apart in the source
crystal structure [4] = target: the molecule itself; remark: listed apart in the source

B1: S-adenosyl-L-homocysteine hydrolase from Sulfolobus acidocaldarius (enzyme)
chain: MDYRVKDLSLAEQGRKQIEWAELHMPALMEIRKRFNAEKPLDGIRIGAVLHVTKETAVLVETLKAGGAEIALAGSNPLSTQDDVAAGLAKNGIHVYAWRGETEKDYYDNIREILKYEPHVIMDDGGDLHAYVHENNLTSKIVGGTEETTTGVIRLKAMEEEKVLKYPVIAVNNAFTKYLFDNRIGTGQSTIDGILRATNILIAGKVAVVIGYGWVGRGIASRFKGMGARVIVVESSPFRALEALMDGFDVMTMNRASEIGDIFVTATGNLNVVSRDHILRMKDGAVLANSGHFNVEIDVKGLKEISVETREVRQNLEEYKLRNGKRIYLLADGRLVNLVAAEGHPSEVMDLSFCNQALSVEHLIKNKGKLENKVYNVPIEIDEQVARLKLKALGIEIEELTIEQKEYIKQWKYGT
stoichiometry N (crystal structure [1]): 4

B2: S-adenosyl-L-homocysteine hydrolase from Methanococcus maripaludis (enzyme)
chain: MSNVKDMSLAPSGHLKMEWAKRHMPVLCRIAEEFKNDKPFEGLTIGMALHLEAKTAILAETLLEGGAKIVITGCNPLSTQDDVAAACVEKGMEVYAWRGETNEEYYENLNKVLDSNPDIIIDDGADLIFLIHTERTELIGKIMGGCEETTTGIIRLKSMAEEGALKFPVVNVNDAYTKHLFDNRYGTGQSAMDGIIRTTNLLIAGKNVVVGGYGWCGRGVASRAAGHGANVIITEVNPIRALEAKMDGFTVLKMEEAAKIGDIFVTTTGCKDILRMEHFLLMKDGAVLSNAGHFDNEINKNDLKELSKSVKEARFNIEEYDLGNKKIYLLGEGRLVNLACADGHPCEVMDMSFANQALSAKFIKENKGKLENEVYEIPYEQDFKIALLKLHSMGADIDELSPEQRKYLSDWKEGT
stoichiometry N (crystal structure [2]): 4

B3: S-adenosyl-L-homocysteine hydrolase from Pyrococcus furiosus (enzyme)
chain: MDCGKDYCVKDLSLAEEGWKKIDWVSRFMPVLQYIKREFEEKKPFKGVRIAATLHLEMKTAFLLLTLKAGGAEVSAAASNPLSTQDDVVAALAKAGVKVYAIRGESREQYYEFMHKALDIRPNIIIDDGADMISLVHKERQEMLDEIWGGSEETTTGVIRLRAMEKAGILKFPVIAVNDSYMKYLFDNRYGTGQSTWDGIMRATNLLIAGKNVVVVGYGWCGRGIAMRARGLGATVIVVEVDPIKALEARMDGFLVMDMKEAAKIGDIFVTATGNIKCIRREHFELMKDGAIMANAGHFDVEIWKPDLEKLAVEINNPRPNVTEYKLKDGRRLYLLADGRLVNLVAADGHPAEIMDMSFALQAKAAEYIKDNHERLEPKVYILPREIDEMVARIKLESMGIKIEELTEEQKKYLESWEHGT
stoichiometry N (crystal structure [3]): 4

B4: S-adenosyl-L-homocysteine hydrolase from Mus musculus (enzyme)
chain: MSDKLPYKVADIGLAAWGRKALDIAENEMPGLMRMREMYSASKPLKGARIAGCLHMTVETAVLIETLVALGAEVRWSSCNIFSTQDHAAAAIAKAGIPVFAWKGETDEEYLWCIEQTLHFKDGPLNMILDDGGDLTNLIHTKYPQLLSGIRGISEETTTGVHNLYKMMSNGILKVPAINVNDSVTKSKFDNLYGCRESLIDGIKRATDVMIAGKVAVVAGYGDVGKGCAQALRGFGARVIITEIDPINALQAAMEGYEVTTMDEACKEGNIFVTTTGCVDIILGRHFEQMKDDAIVCNIGHFDVEIDVKWLNENAVEKVNIKPQVDRYWLKNGRRIILLAEGRLVNLGCAMGHPSFVMSNSFTNQVMAQIELWTHPDKYPVGVHFLPKKLDEAVAEAHLGKLNVKLTKLTEKQAQYLGMPINGPFKPDHYRY
binding result (crystal structure [4]): binds

— publication doi:10.1101/2023.05.12.540488 (bioRxiv, 2023)
